These results are taken from paper PMC9054839.

In assay [1] the target is kindlin-2 (endogenous, fibroblasts) [mouse (endogenous in talin^1/2dko fibroblasts)]. The experiment in a line: anti-GFP immunoprecipitation, western blot quantification. Particulars: talin1/2dKO fibroblasts, N = 3; parent: 1; read off a plot. On the technique in general: In western blotting, separated proteins are transferred to a membrane and probed.
In assay [2] the target is constitutively activated full-length talin mutant tlnM3 (M319A, T1767L, E1770K) (mouse) (UniProt P26039). The assay can be described thus: SPR; tlnM3 amine-coupled to CM5, tlnM3 flowed over; 150 mM salt, pH 6.8, 25 °C; intermolecular tlnM3/tlnM3 interaction (dimerization). Background: In SPR one partner is held on a chip, and binding of the other changes the refractive index at the surface.

The target in assay [3] is GST-integrin beta3 cytoplasmic tail (UniProt P05106). The assay can be described thus: SPR; GST-integrin beta3CT amine-coupled to CM5, talinH or tlnM3 (0–125 nM) flowed over; 50 mM sodium phosphate pH 6.8, 150 mM NaCl, 0.05% Tween 20, 0.03% BSA, 25 °C.
For the next assay, the target named is paxillin 1–160 (human) (UniProt P49023). The assay can be described thus: SPR; paxillin 1–160 amine-coupled to CM5, talin subdomains (0–12 μM) flowed over; 50 mM sodium phosphate pH 6.8, 150 mM NaCl, 25 °C; talin-R1–R4 fitted by a two-state model.
Sequence of paxillin 1–160 (human) (P49023 1-160): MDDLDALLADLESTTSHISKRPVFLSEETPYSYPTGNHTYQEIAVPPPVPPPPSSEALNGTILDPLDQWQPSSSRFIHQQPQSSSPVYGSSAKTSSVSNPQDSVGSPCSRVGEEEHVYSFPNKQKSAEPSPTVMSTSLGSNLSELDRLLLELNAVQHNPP

Sequence of GST-integrin beta3 cytoplasmic tail (P05106 742-788): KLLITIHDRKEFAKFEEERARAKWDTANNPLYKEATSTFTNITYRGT

Turning to “C-terminally ypet-tagged full-length talin WT mutant A680E; K687E [mouse] / kindlin-2 (endogenous, fibroblasts) [mouse (endogenous in talin^1/2dko fibroblasts)] chain 1 A680E, chain 1 K687E”, in assay [1], the ratio to parent came to 0.49.
The same measure, in the same setting: to “C-terminally ypet-tagged full-length talin WT mutant A680E; K687E; T2126E; K2133E [mouse] / kindlin-2 (endogenous, fibroblasts) [mouse (endogenous in talin^1/2dko fibroblasts)] chain 1 A680E, chain 1 K687E, chain 1 T2126E, chain 1 K2133E” belongs 0.31; to “C-terminally ypet-tagged full-length talin WT mutant T2126E; K2133E [mouse] / kindlin-2 (endogenous, fibroblasts) [mouse (endogenous in talin^1/2dko fibroblasts)] chain 1 T2126E, chain 1 K2133E”, 0.81.
As a reminder, the Kd is a measure of binding affinity in units of concentration. As to “constitutively activated full-length talin mutant tlnM3 (M319A, T1767L, E1770K), P26039 1-2541”, in assay [2], the Kd is 1820 nM.
For “talin N-terminal head domain (talin-H) (domain or fragment)”, the Kd in assay [3] turned out to be 29.7 nM.
Still for that read-out and setting: the value for “talin deletion mutant without C-terminal dimerization domain (from UniProt P26039 1-2482) (domain or fragment)” was 36 nM.
Usually stoichiometry N stands for a count of units in the complex or per binding partner. For the substance talin-R1–R4 (domain or fragment), in the assay with paxillin 1–160 (human), the Kd is 0.153 µM and the stoichiometry N turned out to be 1.
For talin-R11 (domain or fragment), the Kd with paxillin 1–160 (human) was 12.7 µM.
